From patent US20210340516A1, “COMPOSITIONS CONTAINING ARGINASE 1 FOR THE TREATMENT OF NEUROVASCULAR AND RETINAL VASCULAR DISORDERS” (Augusta University Research Institute, Inc., priority 2020, published 2021) come the findings set out here.

Series [1] deals with primary rat retinal mixed neurons. Briefly: Primary retinal mixed neurons subjected to OGD/R, LDH release assay. The conditions noted are these: 6 hours OGD and 18 hours reperfusion, PEG-A1 1 μg/mL at reoxygenation. For orientation: LDH leaks from cells whose membrane has failed.
Description: Retinas from ten pups were collected and washed twice with ice-cold 1×PBS. They were digested with 0.5% trypsin for 3-4 min at 37° C., followed by trypsin inactivation with the culture medium, DMEM/F12 (Gibco, Grand Island, N.Y.) plus 10% FBS and 1% Penicillin-Streptomycin (P/S) solution (Invitrogen, Grand Island, N.Y.). The retina tissue was mechanically dissociated by pipetting several times until cells were dispersed. Cells were then filtered through a 40 μm nylon-mesh filter, collected by centrifugation at 1000 rpm for 10 min, re-suspended in culture medium, and plated in 6 or 12 well-cell culture plates (Corning, Corning, N.Y.) coated with Poly-D-lysine hydrobromide (PDL, Sigma) at a density of 0.5×10^6 cells/mL. The plates were maintained in a humidified CO2 incubator at 37° C. and 5% CO2. At days 1, 2, and 3 in vitro (DIV), half of the medium was aspirated and replaced with Neurobasal A medium containing 1×B-27 (GIBCO), 1× glutaMAX (GIBCO) and 1% P/S. Experiments were conducted at DIV 6.
Series [2] is described as follows: Retinal ischemia-reperfusion (IR) injury: PEG-A1 penetration of the blood-retina barrier (anti-PEG Western blot, flat-mount immunolabeling). It is filed as in vivo, mouse. As to the method: (§1) Mouse retinal ischemia-reperfusion (IR) injury and traumatic optic neuropathy (TON) models: All experiments were performed in accordance with the ARVO Statement for the Use of Animals in Ophthalmic and Vision Research and were approved by the institutional animal care and use committee (Animal Welfare Assurance no. D16-00197). Wild-type (WT) C57BL/6J mice (10-12 weeks old) were anesthetized using ketamine/xylazine mixture then subjected to retinal ischemia-reperfusion (IR) injury or optic nerve crush (ONC) to model traumatic optic neuropathy (TON) as described in Shosha, et al., Cell death & disease, 7:e2483-e (2016) and Xu, et al., Frontiers in Neuroscience, 12:970 (2018). Mice were sacrificed at 24 hours or 7 days after by deep anesthesia followed by trans-cardial perfusion with PBS or thoracotomy and eyeballs were collected and fixed in 4% PFA for immunolabeling or retinas were extracted without fixation and homogenized in Radioimmunoprecipitation Assay (RIPA) lysis buffer for Western blotting.
(§2) Western blotting: Western blotting on retina or brain was conducted as described in Fouda, A Y, et al., Cell death & Disease, 9:1001 (2018). Membranes were probed with anti-PEG (RevMAb Biosciences, 1:1000) and anti-albumin (Bethyl Laboratories, 1:5000). Uncropped blots are included in FIG. 22.
Fluorescent immunolabeling: Retinal flat-mounts were permeabilized and immunolabeled with anti-PEG antibody (RevMAb Biosciences, 1:400) and co-stained with Alex594-labeled Griffonia simplicifolia isolectin B4 (1:200; Invitrogen) as described in Shosha, et al., Cell death & disease, 7:e2483-e (2016).
Mice were deeply anesthetized and sacrificed 24 hours later by trans-cardial perfusion with PBS (FIG. 16A). […] These mice were sacrificed at day 7 without trans-cardial perfusion and retina flat-mounts were immunolabeled to show PEG distribution within the retina (FIG. 16D).
PEG-A1 treatment in acute retinal and brain injury mouse models: A pharmaceutical grade of PEG-A1 was provided as a kind gift from Bio-Cancer Treatment International Limited (BCT, Hong Kong). […] Methoxy polyethylene glycol propionic acid (MW 5,000—Sigma, Catalog number 88908-1G-F) was used as vehicle control.
(In general: In western blotting, separated proteins are transferred to a membrane and probed.)

A short description of series [3]: Optic nerve crush (ONC) model: PEG-A1 penetration (Western blot, flat-mount immunolabeling). In kind it is in vivo, mouse. The settings on record: Western blot at 24 hours, flat-mount immunolabeling at 7 days. As to the method: as §1
Western blotting: Western blotting on retina or brain was conducted as described in Fouda, A Y, et al., Cell death & Disease, 9:1001 (2018). Membranes were probed with anti-PEG (RevMAb Biosciences, 1:1000) and anti-albumin (Bethyl Laboratories, 1:5000). Uncropped blots are included in FIG. 22. […]

The nature of series [4]: MCAO stroke model: PEG-A1 penetration into the brain (Western blot). It is filed as in vivo, mouse. The settings on record: 60 minutes MCAO, 24 hours after stroke, perfused. As to the method: as §2
MCAO model: C57BL/6J mice (12-16 week-old male, 25-30 g) were subjected to middle cerebral artery occlusion (MCAO) using the intraluminal filament technique (Docol 602145) for 60-minutes followed by reperfusion as described in Eldahshan, et al., American Journal of Physiology Heart and Circulatory Physiology, 316:H1192-h201 (2019). […] A heating pad was used to maintain body temperature at 37° C. […] Sham surgery involved all the regular surgery steps except the filament insertion. Mice were deeply anesthetized at 24 hours and sacrificed by trans-cardial perfusion with PBS then brains were collected and sectioned for triphenyl tetrazolium chloride (TTC) staining or homogenized in RIPA lysis buffer for western blotting.
PEG-A1 treatment in acute retinal and brain injury mouse models: A pharmaceutical grade of PEG-A1 was provided as a kind gift from Bio-Cancer Treatment International Limited (BCT, Hong Kong). […] Methoxy polyethylene glycol propionic acid (MW 5,000—Sigma, Catalog number 88908-1G-F) was used as vehicle control. […]

Another series relates to retinal explants. As to the kind of experiment: Ex vivo retinal explants subjected to OGD/R, NeuN flat-mount staining. The conditions noted are these: 3 hours OGD/21 hours reoxygenation, treated at reoxygenation; untreated 55%, PEG only 48%. In kind it is cell-based, mouse. The text has this: Evaluation of retinal neurodegeneration: Retina flat-mounts and explants were immunolabeled for the neuronal marker, NeuN (Millipore), as previously described in Shosha, et al., Cell death & disease, 7:e2483-e (2016). Images were collected and analyzed in a blinded fashion using a semi-automated method. Four images per retina flat-mount were taken as Z-stacks in the mid-periphery of each retina petal using an inverted confocal microscope (LSM 780; Carl Zeiss). Three images were taken per explant. NeuN-positive cells were quantified using ImageJ software ‘Batch processing’ function. A prerecorded ImageJ macro code (FIG. 23A-23C) was used for batch processing. The macro was validated every time it was used to make sure it is compatible with the set of images being analyzed. Results from three to four images were averaged to represent neuron density for each retina. Results are presented as % of sham retina or control explant under normoxic conditions. […]
The retinal IR model was mimicked by subjecting retinal explants to oxygen-glucose deprivation/reperfusion (OGD/R) ex vivo (FIG. 19A). An OGD time-response experiment established 3 hours of OGD/21 hours of reoxygenation to be optimal for studying retinal neurodegeneration ex vivo with about 60% neuronal survival as measured by NeuN flat-mount staining (FIG. 19B-19E, 19F).

Setting [5] is: 25 mg/kg i.p. at 3 hours after reperfusion, 24 hours, perfused.
Where [6] appears, read: 25 mg/kg i.p. at 3 hours and day 4, day 7, no perfusion.

B1: PEG-A1: recombinant human arginase (rhArg) covalently attached to methoxy polyethylene glycol (mPEG-SPA; MW 5,000) via succinamide propionic acid (SPA) linker (protein, UniProt P05089 1-322, looked up)
Arginase-1: MSAKSRTIGIIGAPFSKGQPRGGVEEGPTVLRKAGLLEKLKEQECDVKDYGDLPFADIPNDSPFQIVKNPRSVGKASEQLAGKVAEVKKNGRISLVLGGDHSLAIGSISGHARVHPDLGVIWVDAHTDINTPLTTTSGNLHGQPVSFLLKELKGKIPDVPGFSWVTPCISAKDIVYIGLRDVDPGEHYILKTLGIKYFSMTEVDRLGIGKVMEETLSYLLGRKKRPIHLSFDVDGLDPSFTPATGTPVVGGLTYREGLYITEEIYKTGLLSGLDIMEVNPSLGKTPEEVTRTVNTAVAITLACFGLAREGNHKPIDYLNPPK
modifications: mPEG-SPA 5 kDa conjugate
notes: recombinant human arginase (rhArg) covalently attached to methoxy polyethylene glycol (mPEG-SPA; MW 5,000) via succinamide propionic acid (SPA) linker
As for B1, the “cell death (LDH release)” value in series [1] is “increased cell death”. Moreover, in series [2] (setting [5]), the “anti-PEG immunoreactivity in liver homogenates (Western blot)” value is “strong band”; the “anti-PEG reactivity in retina homogenates, IR-injured retinas” value is listed as “strong anti-PEG reactivity”; the “anti-PEG reactivity in retina homogenates, sham eyes” value is “faint anti-PEG reactive bands”. Further, in series [2] (setting [6]), the “PEG distribution within the retina (flat-mount immunolabeling), IR-injured retinas” value is on record as “more diffuse signal” and the “PEG distribution within the retina (flat-mount immunolabeling), sham retinas” value is recorded as “restricted to a vessel-like network”. Also, in series [3], the “penetration into brain or sham contralateral retina/optic nerve after ONC” value is on record as “not into the brain or sham contralateral retina/optic nerve” and the “penetration into retina/optic nerve tissue after ONC” value is “effective penetration”. Moreover, in series [4], the “anti-PEG immunoreactivity in stroked brains (Western blot, also anti-A1)” value was “strong band”. The “neuronal survival of retina explants (NeuN)” value with retinal explants was found to be 73%.
